Values joined by “and” are separate entries in the source; they are usually repeats but may differ in a detail not shown here. Equal entries are not always repeated. Ends that are not written are not given here.
B1: unlabeled peptide of the CTH of LYP (residues 787-807) (peptide)
peptide: GFANRFSKPKGPRNPPPTWNI
notes: lymphoid phosphatase LYP (PTPN22), human, C-terminal homology segment, region 787-807; also called LYP-CTH; source: synthetic peptide (Genosphere Biotechnologies)
B2: F-BAR domain of PSTPIP1 (residues 1-289), wild type (domain or fragment)
chain: not shown
notes: PSTPIP1, human, UniProt O43586, region 1-289 (F-BAR domain); modified pET15b with TEV site; homodimer in the crystals; also called wild type F-BAR; F-BAR of PSTPIP1; not shown: poly-His, N-terminal, cleaved
B3: F-BAR domain of PSTPIP1 (residues 1-289), E250Q (domain or fragment)
chain: not shown
notes: PSTPIP1, human, UniProt O43586, region 1-289 (F-BAR domain), patient mutation E250Q; not shown: poly-His, N-terminal, cleaved
B4: F-BAR domain of PSTPIP1 (residues 1-289), W232A (domain or fragment)
chain: not shown
notes: PSTPIP1, human, UniProt O43586, region 1-289 (F-BAR domain), W232A; not shown: poly-His, N-terminal, cleaved
B5: fluorescein-LYP-CTH (peptide)
peptide: fluorescein-GFANRFSKPKGPRNPPPTWNI
notes: LYP (PTPN22), human, UniProt Q9Y2R2-1, region 787-807 (C-terminal homology segment, CTH); also called fluorescein-labeled LYP-CTH; synthetic peptide of the CTH of LYP (residues 787-807) labeled with fluorescein; source: synthetic peptide (custom synthesized, Thermo Scientific, Germany)
B6: LYP-CTH peptide, unlabeled (residues 787-807) (peptide)
peptide: GFANRFSKPKGPRNPPPTWNI
notes: LYP (PTPN22), human, UniProt Q9Y2R2-1, region 787-807 (C-terminal homology segment, CTH); also called unlabeled LYP-CTH; peptide of the CTH of LYP; source: synthetic peptide (custom synthesized, Genosphere Biotechnologies, France)
B7: F-BAR domain of PSTPIP1 (residues 1-289), G258A (domain or fragment)
chain: not shown
notes: PSTPIP1, human, UniProt O43586, residues 1-289 (F-BAR domain), patient mutation G258A; homodimer in the crystal; also called G258A mutant; PSTPIP1-G258A; not shown: poly-His, N-terminal, cleaved

Assays:
[1] = target: T1, F-BAR domain of PSTPIP1 (residues 1-289), wild type (human, UniProt O43586 1-289); assay: ITC; unlabeled LYP-CTH peptide in the syringe, F-BAR of PSTPIP1 in the cell; 25 °C; 20 mM sodium phosphate (pH 7.5), 150 mM NaCl, 5% (v/v) DMSO; single set of identical sites model; three single experiments; conditions: both partners purified
T1 construct: His tag cleaved with TEV protease; forms the F-BAR dimer in the crystal; also called PSTPIP1 F-BAR (1-289); F-BAR of PSTPIP1; not shown: poly-His, N-terminal, cleaved

[2] = target: B5; assay: fluorescence polarisation; fluorescence anisotropy under saturation conditions; fluorescein-LYP-CTH at 1 µM titrated with the F-BAR of PSTPIP1; stoichiometry from the intersection of asymptotes; conditions: both partners purified
[3] = target: the molecule itself; assay: crystal structure; F-BAR domain of PSTPIP1 (1-289) alone, G258A and wild type; space group P212121, two molecules in the asymmetric unit
[4] = target: B5; assay: fluorescence polarisation; fluorescence anisotropy; fluorescein-LYP-CTH (2 nM) titrated with the F-BAR of PSTPIP1; 20 mM Tris/HCl pH 7.5, 150 mM NaCl, 0.1 mg/mL BSA; 25 °C; apparent kd, one-to-one binding model; conditions: both partners purified
[5] = target: T2, F-BAR domain of PSTPIP1 (residues 1-289), A230T (human, UniProt O43586 1-289, A230T); assay: as above; conditions: both partners purified
T2 construct: PSTPIP1, human, UniProt O43586, region 1-289 (F-BAR domain), patient mutation A230T; also called A230T mutant; not shown: poly-His, N-terminal, cleaved
T2 sequence (O43586 1-289 A230T): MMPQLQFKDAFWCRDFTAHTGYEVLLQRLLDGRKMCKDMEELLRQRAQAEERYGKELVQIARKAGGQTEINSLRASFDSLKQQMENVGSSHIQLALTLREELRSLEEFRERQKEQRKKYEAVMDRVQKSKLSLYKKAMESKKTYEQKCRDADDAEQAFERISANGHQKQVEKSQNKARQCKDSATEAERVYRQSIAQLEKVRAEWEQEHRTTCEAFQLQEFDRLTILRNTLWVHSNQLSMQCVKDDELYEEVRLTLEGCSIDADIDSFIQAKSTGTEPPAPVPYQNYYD

[6] = target: B2; assay: as above; conditions: both partners purified
[7] = target: B2; assay: ITC; 25 °C; F-BAR of PSTPIP1 in the cell (26.2-30.6 µM), unlabeled LYP-CTH peptide in the syringe (146.8-155.2 µM); 20 mM sodium phosphate pH 7.5, 150 mM NaCl, 5% DMSO; single set of identical sites model; conditions: both partners purified

Binder: B1
- Kd [1]: 263 nM and 229 nM and 267 nM
- stoichiometry N [1]: 0.5 and 0.49 and 0.46

Binder: B2
- stoichiometry N [2]: 2 molecules of PSTPIP1 for each LYP-CTH
- binding result [3]: binds

Binder: B3
- fold lower binding affinity than the wild type F-BAR [4]: ~60 fold

Binder: B4
- fold lower binding affinity than the wild type F-BAR [4]: ~60 fold

Binder: B5
- Kd [5]: ~20 nM
- Kd [6]: ~20 nM

Binder: B6
- Kd [7]: 253 nM
- stoichiometry N [7]: 0.48 molecules of LYP-CTH for each PSTPIP1

Binder: B7
- stoichiometry N [3]: 2

From article PMC8840930, “PSTPIP1-LYP phosphatase interaction: structural basis and implications for autoinflammatory disorders” (Cellular and Molecular Life Sciences: CMLS, 2022)
